The conditions of series [1]: in vivo; cited from earlier work.
Series [2] concerns Tg-APP/PS1 mice. Nature of the series: Aβ plaque deposition in brain tissue, thioflavin S staining. Conditions: Example 2; GI210B1, GI210B1C1, GI210B1CN at 1.2, 0.7778, 1.1745 mg/kg intraperitoneal, 4 times for 2 weeks. The class given is in vivo, mouse. As to the method: Accordingly, in order to confirm the effect of treating Alzheimer's disease by intraperitoneal administration of GI210B1, the Tg-APP/PS1 mice administered with GI210B1 (Tg+GI210B1) and the Tg-APP/PS1 mice (Tg+Veh), a control group, were sacrificed, and then the brain tissue was extracted, and Aβ plaques were stained using thioflavin S, and then the degree of Aβ plaque deposition in the parietal cortex, hippocampus, and piriform cortex regions was analyzed.
Specifically, for immunohistochemical analysis using thioflavin S staining, the brain was collected after perfusion for the mouse with 4% paraformaldehyde, and then the brain was further fixed with 4% paraformaldehyde overnight at 4° C. The brain tissue sections were prepared by cutting the fixed brain tissue to a thickness of […] using a vibratome. The prepared brain tissue sections were stained using thioflavin S by a known method. At that time, the stained image was analyzed using MetaMorph Microscopy Automation & Image Analysis software (Molecular device). The amount of plaque was quantified and expressed as the number of plaques per unit area and the sum of the plaque areas.
The Tg-APP/PS1 mice were prepared in the same manner as in Example 1.1 above. The test substance was prepared by diluting GI210B1, GI210B1C1, or GI210B1CN obtained in Preparation Example 1 to 3 in saline. Thereafter, the prepared test substances were each intraperitoneally administered to the 6.5-month-old Tg-APP/PS1 mice at a concentration of 1.2 mg/kg, 0.7778 mg/kg, and 1.1745 mg/kg a total of 4 times for 2 weeks (FIG. 23).
In the same manner as in Example 1.3 above, the mice were sacrificed, and then the brain tissue was extracted, and the degree of Aβ plaque deposition in the parietal cortex, hippocampus, and piriform cortex regions was analyzed using thioflavin S, which stains Aβ plaques.
The Tg-APP/PS1 mice were prepared in the same manner as in Example 1.1 above. The test substance was prepared by diluting GLP-1 (Peptron), GI210B1C1 obtained in Preparation Example 2 and GI212B2 obtained in Preparation Example 4, anakinra (Amgen, Kineret-inj), and the anti-IL-1 antibody (BioXcell, BE0246) in saline to concentrations of 0.0371 mg/kg, 1.1745 mg/kg, 1.8722 mg/kg, 0.2041 mg/kg, and 1.77 mg/kg, respectively. Thereafter, the prepared test substances were intraperitoneally administered to the 6.5-month-old Tg-APP/PS1 mice a total of 4 times for 2 weeks, as shown in Table 6 below (FIG. 30). […]
In the same manner as in Example 1.3 above, the mice from each group were sacrificed, and then the brain tissue was extracted, and the degree of Aβ plaque deposition in the parietal cortex, hippocampus, and piriform cortex regions was analyzed using thioflavin S, which stains Aβ plaques.

In series [3] the test system is Tg-APP/PS1 mice. Nature of the series: MAP-2 immunofluorescence staining of hippocampal CA1 region. The class given is in vivo, mouse. The following applies: Example 2; GI210B1, GI210B1C1, GI210B1CN at 1.2, 0.7778, 1.1745 mg/kg intraperitoneal, 4 times for 2 weeks. From the text: Long-term memory is regulated at synapses between axons of neurons and dendrites of target neurons, and the microstructure of neurons is greatly influenced by the state of neuron health. Changes in the microstructure of dendrites of neurons are important for maintaining memory. The microstructure of the dendrites of such neurons can be observed as an image by staining with an anti-MAP-2 antibody (GeneTex, CatNo. GTX133109) located in the dendrites.
Therefore, in order to determine the mechanism of action of cognitive function improvement and memory recovery effects of GI210B1, the Tg-APP/PS1 mice administered with GI210B1 (Tg+GI210B1), the wild type mice (WT) as a normal group, and the Tg-APP/PS1 mice (Tg or Tg+Veh) as a control group were sacrificed, and then the brain tissue was extracted, and the microstructural status of the dendrites (dendritic process) of the hippocampus was analyzed.
In the same manner as in Example 1.4.1 above, the mice from each group were sacrificed, and then the brain tissue was extracted, and the microstructural status of the dendrites of the hippocampus was analyzed.

Consider “wild type GLP-1: wild type glucagon-like peptide-1, cleaved and inactivated by DPP-4 in vivo; SEQ ID NO: 1”, for which the biological half-life in series [1] is on record as 1-2 minutes.

B1: GI210B1CN: fusion protein dimer comprising GLP-1 and an Fc domain of IgG4; SEQ ID NO: 22 (protein)
chain: HGEGTFTSDVSSYLEEQAAKEFIAWLVKGGGGGGGSGGGGSGGGGSGGAESKYGPPCPPCPAPEAAGGPSVFLFPPKPKDQLMISRTPEVTCVVVDVSQEDPEVQFNWYVDGVEVHNAKTKPREEQFNSTYRVVSVLTVLHQDWLNGKEYKCKVSNKGLPSSIEKTISKAKGQPREPQVYTLPPSQEEMTKNQVSLTCLVKGFYPSDIAVEWESNGQPENNYKTTPPVLDSDGSFFLYSRLTVDKSRWQEGNVFSCSVLHEALHNHYTQKSLSLSLG
modifications: dimer; GLP-1-IgG4 Fc
Take B1: the “amount of plaque deposited in the brain (number of plaques per unit area and sum of plaque areas)” value with Tg-APP/PS1 mice [2] was “tended to be reduced”. Besides, the “expression level of MAP-2 in the CA1 region of the hippocampus” value with Tg-APP/PS1 mice [3] is “higher than that of the control group (Tg+Veh)”.
